Measured values from US20150133367A1 (University of Pennsylvania, published 2015).
Like-named read-outs stand apart in the source and are kept apart here. Blank lines part the entries; values can stand above or below the binder they belong to. Positions of bridges follow the written chain, without caps; N, C: chain ends. Non-standard residues stand in square brackets, D forms with d. No end group written: not given here. alpha,alpha'‑meta‑xylylene = alpha,alpha'-meta-xylylene linker (from a,a'-dibromo-meta-xylene) bridging two cysteines via bis-thioether; Bip = N[C@@H](Cc1ccc(-c2ccccc2)cc1)C(=O)O; 2Nal = N[C@@H](Cc1ccc2ccccc2c1)C(=O)O

Key:
Experiment in all cases: fluorescence-based enzyme inhibition assay
Cathepsin L [1] = molecular target: T1, Cathepsin L (UniProt P07711 114-333)
Calpain-1 [2] = molecular target: Calpain-1
Calpain-1 [3] = molecular target: T2, Calpain-1
T2 chain 1: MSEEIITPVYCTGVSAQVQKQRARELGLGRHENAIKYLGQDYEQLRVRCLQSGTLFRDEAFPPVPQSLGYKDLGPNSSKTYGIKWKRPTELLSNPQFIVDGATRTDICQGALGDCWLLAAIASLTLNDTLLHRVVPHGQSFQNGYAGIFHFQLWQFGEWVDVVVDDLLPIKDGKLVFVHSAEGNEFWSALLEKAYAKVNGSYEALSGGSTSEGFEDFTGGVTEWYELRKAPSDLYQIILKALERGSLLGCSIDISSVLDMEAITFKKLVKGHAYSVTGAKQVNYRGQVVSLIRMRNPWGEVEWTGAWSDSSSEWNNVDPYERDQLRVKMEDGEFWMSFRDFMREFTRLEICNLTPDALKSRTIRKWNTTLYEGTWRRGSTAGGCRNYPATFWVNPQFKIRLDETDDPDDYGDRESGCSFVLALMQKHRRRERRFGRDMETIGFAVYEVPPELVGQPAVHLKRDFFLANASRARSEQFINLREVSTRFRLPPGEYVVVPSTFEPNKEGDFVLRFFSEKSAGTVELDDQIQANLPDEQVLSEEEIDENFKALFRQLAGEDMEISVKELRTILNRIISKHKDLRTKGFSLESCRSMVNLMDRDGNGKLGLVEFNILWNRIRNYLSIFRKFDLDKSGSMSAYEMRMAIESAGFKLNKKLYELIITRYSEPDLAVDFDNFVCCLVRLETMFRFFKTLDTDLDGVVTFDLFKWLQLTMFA
T2 chain 2: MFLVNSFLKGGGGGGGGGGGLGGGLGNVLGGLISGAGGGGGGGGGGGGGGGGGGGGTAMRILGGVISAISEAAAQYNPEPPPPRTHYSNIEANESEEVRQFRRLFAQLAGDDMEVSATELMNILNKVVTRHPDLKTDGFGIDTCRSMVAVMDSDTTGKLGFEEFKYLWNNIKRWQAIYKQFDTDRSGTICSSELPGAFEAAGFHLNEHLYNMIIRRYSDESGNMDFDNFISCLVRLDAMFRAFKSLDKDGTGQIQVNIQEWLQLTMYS

Cathepsin L [4] = molecular target: T1, Cathepsin L; remark: listed apart in the source
Cathepsin K [5] = molecular target: T3, Cathepsin K (UniProt P43235 115-329)
T3 sequence (looked up): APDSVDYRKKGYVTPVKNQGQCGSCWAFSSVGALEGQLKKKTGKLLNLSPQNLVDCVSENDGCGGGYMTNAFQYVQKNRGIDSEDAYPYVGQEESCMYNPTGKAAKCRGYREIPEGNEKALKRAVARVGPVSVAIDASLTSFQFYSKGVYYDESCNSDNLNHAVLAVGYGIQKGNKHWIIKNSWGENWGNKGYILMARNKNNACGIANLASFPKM

Cathepsin S = Cathepsin S (UniProt P25774 115-331)
Cathepsin L [6] = molecular target: T1, Cathepsin L; remark: listed apart in the source
Cathepsin K [7] = molecular target: T3, Cathepsin K; remark: listed apart in the source

T1 sequence (P07711 114-333 limits assumed): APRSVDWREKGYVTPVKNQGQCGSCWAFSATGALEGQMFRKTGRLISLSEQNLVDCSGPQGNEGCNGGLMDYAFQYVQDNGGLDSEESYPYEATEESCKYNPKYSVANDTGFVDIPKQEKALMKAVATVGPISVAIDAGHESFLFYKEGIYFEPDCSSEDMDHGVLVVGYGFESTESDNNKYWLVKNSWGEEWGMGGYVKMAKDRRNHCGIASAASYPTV
Cathepsin S, sequence (P25774 115-331 limits assumed): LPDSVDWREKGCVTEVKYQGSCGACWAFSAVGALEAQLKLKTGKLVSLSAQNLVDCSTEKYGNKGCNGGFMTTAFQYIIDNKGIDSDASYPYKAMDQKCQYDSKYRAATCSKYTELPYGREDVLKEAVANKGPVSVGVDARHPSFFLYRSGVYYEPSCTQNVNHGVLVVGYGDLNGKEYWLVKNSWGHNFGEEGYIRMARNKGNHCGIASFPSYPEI

B1: IPPK(OBn-Y)CELLC (SEQ ID NO:83) (peptide)
peptide: IPPKXCELLC
modifications: Cys6 and Cys10 (i,i+4) linked by alpha,alpha'-meta-xylylene; residue 5 OBn-Y = O-benzyltyrosine
Ki (Cathepsin L [1]): 16.7 µM
Ki (Calpain-1 [2]): 21.3 µM

Binder: IPPK[Bip]CELLC (linker 6-10 via alpha,alpha'‑meta‑xylylene) [IPPK(bip)CELLC (SEQ ID NO:82)]
Ki (Calpain-1 [2]): 9.65 µM

Binder: QCEVVCKMTGL (linker 2-6 via alpha,alpha'‑meta‑xylylene) [QCEVVCKMTGL (SEQ ID NO:34)]
Ki (Cathepsin S): 43.5 µM
Ki (Cathepsin L [6]): 46.2 µM
Ki (Cathepsin K [7]): 76.8 µM

Results, then the binder that gave them:

Ki (Calpain-1 [3]): 19.8 µM
Binder: SCE[Bip]RCVMNG[2Nal] (linker 2-6 via alpha,alpha'‑meta‑xylylene, also called compound (IIIa)) [SCE(bip)RCVMNG(nap) (SEQ ID NO:9)]

Ki (Cathepsin L [4]): 84.7 µM
Binder: SECFRQCMNGF (linker 3-7 via alpha,alpha'‑meta‑xylylene) [SECFRQCMNGF (SEQ ID NO:2)]

Ki (Cathepsin L [4]): 29.4 µM
Ki (Cathepsin K [5]): > 100 µM
Binder: SCEFRCVMNGF (linker 2-6 via alpha,alpha'‑meta‑xylylene) [SCEFRCVMNGF (SEQ ID NO:3)]

Ki (Cathepsin S): 58.3 µM
Ki (Cathepsin L [6]): 48 µM
Ki (Cathepsin K [7]): > 100 µM
Binder: SCEVVCKPTGL (linker 2-6 via alpha,alpha'‑meta‑xylylene) [SCEVVCKPTGL (SEQ ID NO:39)]
